Measurements as given in patent US20030064070A1.

Biological target: recombinant human TNFα (rhTNF) (human) (UniProt P01375)
Assay: cell-based or functional assay

Sequence of UniProt P01375 (P01375 77-233 limits assumed): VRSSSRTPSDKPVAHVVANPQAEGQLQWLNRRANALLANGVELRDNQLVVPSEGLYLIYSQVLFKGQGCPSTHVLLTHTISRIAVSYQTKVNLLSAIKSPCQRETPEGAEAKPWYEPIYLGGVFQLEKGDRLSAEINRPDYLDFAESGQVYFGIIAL

B1: chimeric mouse/human IgG1 anti-platelet mAb (7E3) (antibody, INN chains, looked up, V domains shown)
VH: EVQLQQSGTVLARPGASVKMSCEASGYTFTNYWMHWVKQRPGQGLEWIGAIYPGNSDTSYIQKFKGKAKLTAVTSTTSVYMELSSLTNEDSAVYYCTLYDGYYVFAYWGQGTLVTVSA
VL: EIVLTQSPVTLSVTPGDSVSLSCRASRDISNNLHWFQQTSHESPRLLIKYASQSMSGIPSRFSGSGSGTDFTLSINSVETEDFGMYFCQQTNSWPYTFGGGTKLEIK
modifications: IgG1
  IL-6 in supernatant of FS-4 fibroblasts, TNF 0.3 ng/ml, antibody 4 µg/ml: 1.6 ng/mL
  IL-6 in supernatant of FS-4 fibroblasts, TNF 1.5 ng/ml, antibody 4 µg/ml: 1.96 ng/mL
  IL-6 in supernatant of FS-4 fibroblasts, TNF 7.5 ng/ml, antibody 4 µg/ml: 2.16 ng/mL
